Test results published in patent US20240189352A1 (MAX DELBR CK CENTRUM F R MOLEKULARE MEDIZIN IN DER …, published 2024).

B1: RAC2-T002 TCR (TCR, V domains shown)
V domain 1: AQSVTQLGSHVSVSEGALVLLRCNYSSSVPPYLFWYVQYPNQGLQLLLKYTTGATLVKGINGFEAEFKKSETSFHLTKPSAHMSDAAEYFCAVGANNLFFGTGTRLTVIP
V domain 2: EPEVTQTPSHQVTQMGQEVILRCVPISNHLYFYWYRQILGQKVEFLVSFYNNEISEKSEIFDDQFSVERPDGSNFTLKIRSTKLEDSAMYFCASSEWRGSSYNEQFFGPGTRLTVL
B2: RAC2-T001 TCR (TCR, V domains shown)
V domain 1: GENVEQHPSTLSVQEGDSAVIKCTYSDSASNYFPWYKQELGKGPQLIIDIRSNVGEKKDQRIAVTLNKTAKHFSLHITETQPEDSAVYFCAASMGNAGNMLTFGGGTRLMVKP
V domain 2: EPEVTQTPSHQVTQMGQEVILRCVPISNHLYFYWYRQILGQKVEFLVSFYNNEISEKSEIFDDQFSVERPDGSNFTLKIRSTKLEDSAMYFCASSETSGASYEQYFGPGTRLTVT

How the values were obtained:
[1] = biological target: wild-type RAC1/2 peptide presented by HLA-A2 (peptide-loaded T2 cells) (human); experiment: cell-based or functional assay
[2] = biological target: HLA-A2-restricted GNAZ peptide … presented by HLA-A2 (human); experiment: cell-based or functional assay

Row | Binder | IFNγ production by TCR-transduced T cells (relative to unmodified RAC2^P29L) [1] | IFNγ production of T001 TCR-transduced T cells upon coculture with peptide-loaded T2 cells (relative to PMA and ionomycin maximum) [2]
1 | B1 | 35% | 
2 | B2 |  | ~30%
